In patent US20240327497A1:
Changes are numbered by the printed parent chain. Numbers in names are those of the source. Where “and” joins values, the source holds several entries; their conditions need not be identical. Equal values may be shown once.

B1: canine IgGB Fc (CH2-CH3) T286L with N-terminal SASA tag (Fc fusion, part only; not given: SASA tag, not shown: another chain or arm of the molecule; small tags and cut ends)
Fc: APEMLGGPSVFIFPPKPKDTLLIARTPEVTCVVVDLDPEDPEVQISWFVDGKQMQLAKTQPREEQFNGTYRVVSVLPIGHQDWLKGKQFTCKVNNKALPSPIERTISKARGQAHQPSVYVLPPSREELSKNTVSLTCLIKDFFPPDIDVEWQSNGQQEPESKYRTTPPQLDEDGSYFLYSKLSVDKSRWQRGDTFICAVMHEALHNHYTQESLSHSPGK
B2: canine IgGB Fc (CH2-CH3) T286Y with N-terminal SASA tag (Fc fusion, part only; not given: SASA tag, not shown: another chain or arm of the molecule; small tags and cut ends)
Fc: B1 Fc with L56Y
B3: canine IgGB Fc (CH2-CH3) A426F with N-terminal SASA tag (Fc fusion, part only; not given: SASA tag, not shown: another chain or arm of the molecule; small tags and cut ends)
Fc: B1 Fc with L56T, A198F
B4: canine IgGB Fc (CH2-CH3) A426Y with N-terminal SASA tag (Fc fusion, part only; not given: SASA tag, not shown: another chain or arm of the molecule; small tags and cut ends)
Fc: B1 Fc with L56T, A198Y
B5: canine IgGB Fc (CH2-CH3) D312P with N-terminal SASA tag (Fc fusion, part only; not given: SASA tag, not shown: another chain or arm of the molecule; small tags and cut ends)
Fc: B1 Fc with L56T, D82P
B6: canine IgGB Fc (CH2-CH3) A426H with N-terminal SASA tag (Fc fusion, part only; not given: SASA tag, not shown: another chain or arm of the molecule; small tags and cut ends)
Fc: B1 Fc with L56T, A198H
B7: canine IgGB Fc (CH2-CH3) Q311V with N-terminal SASA tag (Fc fusion, part only; not given: SASA tag, not shown: another chain or arm of the molecule; small tags and cut ends)
Fc: B1 Fc with L56T, Q81V
B8: canine IgGB Fc (CH2-CH3) D378V with N-terminal SASA tag (Fc fusion, part only; not given: SASA tag, not shown: another chain or arm of the molecule; small tags and cut ends)
Fc: B1 Fc with L56T, D148V
B9: canine IgGB Fc (CH2-CH3) A254T with N-terminal SASA tag (Fc fusion, part only; not given: SASA tag, not shown: another chain or arm of the molecule; small tags and cut ends)
Fc: B1 Fc with A24T, L56T
B10: canine IgGB Fc (CH2-CH3) N434W with N-terminal SASA tag (Fc fusion, part only; not given: SASA tag, not shown: another chain or arm of the molecule; small tags and cut ends)
Fc: B1 Fc with L56T, N206W
B11: canine IgGB Fc (CH2-CH3) YTE variant (L252Y/A254T/T256E) with N-terminal SASA tag (Fc fusion, part only; not given: SASA tag, not shown: another chain or arm of the molecule; small tags and cut ends)
Fc: B1 Fc with L22Y, A24T, T26E, L56T
B12: canine IgGB Fc (CH2-CH3) N434Y with N-terminal SASA tag (Fc fusion, part only; not given: SASA tag, not shown: another chain or arm of the molecule; small tags and cut ends)
Fc: B1 Fc with L56T, N206Y
B13: canine IgGB Fc (CH2-CH3) N434R with N-terminal SASA tag (Fc fusion, part only; not given: SASA tag, not shown: another chain or arm of the molecule; small tags and cut ends)
Fc: B1 Fc with L56T, N206R
B14: canine IgGB Fc (CH2-CH3) N434A with N-terminal SASA tag (Fc fusion, part only; not given: SASA tag, not shown: another chain or arm of the molecule; small tags and cut ends)
Fc: B1 Fc with L56T, N206A
B15: canine IgGB Fc (CH2-CH3) N434S with N-terminal SASA tag (Fc fusion, part only; not given: SASA tag, not shown: another chain or arm of the molecule; small tags and cut ends)
Fc: B1 Fc with L56T, N206S

biological target: canine FcRn (FcRn large subunit with canine beta-2-microglobulin) (canine); experiment: SPR pH 6.0, SASA-Fc captured on BSA, FcRn 200 nM

Row | Binder | Kd | koff | kon
1 | B1 | 174 nM and 208 nM | 0.0565 s⁻¹ and 0.103 s⁻¹ | 324000 M⁻¹ s⁻¹ and 496000 M⁻¹ s⁻¹
2 | B2 | 69.8 nM and 116 nM |  | 410000 M⁻¹ s⁻¹ and 1.11e+06 M⁻¹ s⁻¹

biological target: canine FcRn (FcRn large subunit with canine beta-2-microglobulin) (canine); experiment: SPR pH 5.5, SASA-Fc captured on BSA, FcRn 200 nM

Row | Binder | Kd | koff | kon
3 | B3 | 182 nM and 181 nM | 0.143 s⁻¹ and 0.147 s⁻¹ | 786000 M⁻¹ s⁻¹ and 811000 M⁻¹ s⁻¹
4 | B4 | 146 nM and 143 nM | 0.109 s⁻¹ and 0.112 s⁻¹ | 750000 M⁻¹ s⁻¹ and 785000 M⁻¹ s⁻¹
5 | B5 | 291 nM and 439 nM | 0.0894 s⁻¹ and 0.11 s⁻¹ | 307000 M⁻¹ s⁻¹ and 251000 M⁻¹ s⁻¹
6 | B6 | 160 nM and 153 nM | 0.135 s⁻¹ and 0.14 s⁻¹ | 843000 M⁻¹ s⁻¹ and 915000 M⁻¹ s⁻¹

biological target: canine FcRn (FcRn large subunit with canine beta-2-microglobulin) (canine); experiment: SPR pH 5.5, SASA-Fc captured on BSA, FcRn 200 nM; remark: another data set of the same source

Row | Binder | Kd | koff | kon
7 | B7 | 372 nM and 439 nM | 0.566 s⁻¹ and 0.696 s⁻¹ | 1.52e+06 M⁻¹ s⁻¹ and 1.59e+06 M⁻¹ s⁻¹

biological target: canine FcRn (FcRn large subunit with canine beta-2-microglobulin) (canine); experiment: SPR pH 5.5, SASA-Fc captured on BSA, FcRn 200 nM; remark: another data set of the same source

Row | Binder | Kd | koff | kon
8 | B8 | 693 nM and 873 nM | 0.159 s⁻¹ and 0.16 s⁻¹ | 229000 M⁻¹ s⁻¹ and 184000 M⁻¹ s⁻¹

biological target: canine FcRn (FcRn large subunit with canine beta-2-microglobulin) (canine); experiment: SPR pH 5.5, SASA-Fc captured on BSA, FcRn 200 nM; remark: another data set of the same source

Row | Binder | Kd | koff | kon
9 | B9 | 2290 nM and 1340 nM | 0.375 s⁻¹ and 0.433 s⁻¹ | 163000 M⁻¹ s⁻¹ and 323000 M⁻¹ s⁻¹

biological target: canine FcRn (FcRn large subunit with canine beta-2-microglobulin) (canine); experiment: SPR pH 5.5, SASA-Fc captured on BSA, FcRn 100-800 nM

Row | Binder | Kd | koff | kon
10 | B10 | 101 nM | 0.045 s⁻¹ | 446000 M⁻¹ s⁻¹
11 | B3 | 522 nM | 0.132 s⁻¹ | 253000 M⁻¹ s⁻¹
12 | B4 | 389 nM | 0.102 s⁻¹ | 262000 M⁻¹ s⁻¹
13 | B11 | 184 nM | 0.046 s⁻¹ | 250000 M⁻¹ s⁻¹
14 | B12 | 29.1 nM | 0.0151 s⁻¹ | 520000 M⁻¹ s⁻¹
15 | B13 | 182 nM | 0.0801 s⁻¹ | 440000 M⁻¹ s⁻¹
16 | B6 | 343 nM | 0.106 s⁻¹ | 308000 M⁻¹ s⁻¹

biological target: canine FcRn (FcRn large subunit with canine beta-2-microglobulin) (canine); experiment: SPR pH 5.5, SASA-Fc captured on BSA, FcRn 400 nM

Row | Binder | Kd | WT KD Avg/Variant KD | koff | kon
17 | B14 | 457 nM and 494 nM | 1.24 and 1.14 | 0.237 s⁻¹ and 0.477 s⁻¹ | 518000 M⁻¹ s⁻¹ and 966000 M⁻¹ s⁻¹

biological target: canine FcRn (FcRn large subunit with canine beta-2-microglobulin) (canine); experiment: SPR pH 6.0, SASA-Fc captured on BSA, FcRn 100-800 nM

Row | Binder | Kd | koff | kon
18 | B11 | 210 nM | 0.0659 s⁻¹ | 314000 M⁻¹ s⁻¹
19 | B1 | 777 nM | 0.253 s⁻¹ | 325000 M⁻¹ s⁻¹
20 | B2 | 632 nM | 0.162 s⁻¹ | 256000 M⁻¹ s⁻¹

biological target: canine FcRn (FcRn large subunit with canine beta-2-microglobulin) (canine); experiment: SPR pH 5.5, SASA-Fc captured on BSA, FcRn 200 nM; remark: another data set of the same source

Row | Binder | Kd | koff | kon
21 | B14 | 573 nM and 629 nM | 0.156 s⁻¹ and 0.164 s⁻¹ | 272000 M⁻¹ s⁻¹ and 261000 M⁻¹ s⁻¹
22 | B10 | 40.4 nM and 75.7 nM |  | 
23 | B12 | 15.9 nM | 0.00968 s⁻¹ | 607000 M⁻¹ s⁻¹
24 | B15 | 924 nM and 1050 nM | 0.207 s⁻¹ and 0.209 s⁻¹ | 225000 M⁻¹ s⁻¹ and 199000 M⁻¹ s⁻¹
25 | B13 | 107 nM and 159 nM | 0.0524 s⁻¹ and 0.0633 s⁻¹ | 488000 M⁻¹ s⁻¹ and 399000 M⁻¹ s⁻¹
